Measured values taken from paper PMC11961710, “Design and implementation of aerobic and ambient CO2-reduction as an entry-point for enhanced carbon fixation” (Nature Communications, 2025).

T1: BKACE15 (Paracoccus denitrificans, UniProt A1B802)
T1 construct: gene Pden_3578
T1 sequence (A1B802 1-310): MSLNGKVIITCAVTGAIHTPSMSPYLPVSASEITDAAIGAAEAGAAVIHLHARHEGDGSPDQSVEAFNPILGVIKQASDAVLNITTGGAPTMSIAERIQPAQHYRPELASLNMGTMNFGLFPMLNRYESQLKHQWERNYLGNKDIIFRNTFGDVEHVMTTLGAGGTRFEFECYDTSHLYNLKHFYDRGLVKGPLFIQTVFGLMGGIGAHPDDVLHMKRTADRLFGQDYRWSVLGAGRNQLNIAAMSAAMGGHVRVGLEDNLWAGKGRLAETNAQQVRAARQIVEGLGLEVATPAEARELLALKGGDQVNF


Columns and labels:
BKACE15 = target: T1, BKACE15; experiment: crystal structure at […] Å (with acetyl-CoA); product inhibition measured by LC-MS with purified enzyme; type: biochemical
purified protein [1] = substrate: O=CCC(=O)O; experiment: purified protein; type: biochemical, Paracoccus denitrificans; details: Zn2+ MSA must enter the active site first, before acetyl-CoA can bind
purified protein [2] = substrate: CC(=O)SCCNC(=O)CCNC(=O)[C@H](O)C(C)(C)COP(=O)(O)OP(=O)(O)OC[C@H]1O[C@@H](n2cnc3c(N)ncnc32)[C@H](O)[C@@H]1OP(=O)(O)O; experiment: purified protein; details: Zn2+ active site entry channel, fully occupied upon acetyl-CoA binding

| Molecule | IC50 (BKACE15) | Km (purified protein [1]) | Km (purified protein [2]) |
| --- | --- | --- | --- |
| CC(=O)CC(=O)O [AAE, acetoacetate] | 1450 ± 160 µM |  |  |
| BKACE15 (Paracoccus denitrificans PD1222) (protein) MSLNGKVIITCAVTGAIHTPSMSPYLPVSASEITDAAIGAAEAGAAVIHLHARHEGDGSPDQSVEAFNPILGVIKQASDAVLNITTGGAPTMSIAERIQPAQHYRPELASLNMGTMNFGLFPMLNRYESQLKHQWERNYLGNKDIIFRNTFGDVEHVMTTLGAGGTRFEFECYDTSHLYNLKHFYDRGLVKGPLFIQTVFGLMGGIGAHPDDVLHMKRTADRLFGQDYRWSVLGAGRNQLNIAAMSAAMGGHVRVGLEDNLWAGKGRLAETNAQQVRAARQIVEGLGLEVATPAEARELLALKGGDQVNF |  | 830 ± 90 µM | 110 ± 10 µM |
